Here are results for one substance from publication PMC7438487, “Structural studies reveal flexible roof of active site responsible for ω-transaminase CrmG overcoming by-product inhibition” (Communications Biology, 2020).

The assay concerns the target ω-transaminase CrmG from Actinoalloteichus cyanogriseus WH1-2216-6 (Actinoalloteichus cyanogriseus WH1-2216-6). As to the kind of experiment: dynamic light scattering; apo CrmG at 4.8 mg/mL in 50 mM Tris buffer pH 7.5, 20 °C, DynaPro Titan.

The substance “ω-transaminase CrmG from Actinoalloteichus cyanogriseus WH1-2216-6 (enzyme)” yielded a stoichiometry N of 2.
